Laboratory results taken from a protein production outcome set (Wang et al. 2014).

Assay: label from the status in PepcDB records
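Also: failed if final PepcDB status was selected cloned or expressed and not failed if soluble or beyond.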

| Sequence | protein production |
| --- | --- |
| MYNRPNWQRRRRSLLVLVLGLLFLGFLIQPSYQWTKTNVAAMAGRHDSQMSPIIMIPGSSATQNRFDTLVKQLNKADHRRHSLIKLTVMTDDTIKMTGSLRARDNEPIIVVGFQNNRDGYDNIKHQARWFSLAFKKLAAKYQFNNFKAIGHSNGGLIYTYYFEHYFNRDDIKVKRIMTIGSPYNFSEANLNHKTQMLADFIKYRDRLPKSATMYSVAGTENYDSDGLVPARSVEAGKYIYQGQVKHFTEITVTGTNAQHSDLPQNAQIVTLIRTYMLDKPKQTRKGLVSTGTVE | failed |
| MLEYKKILVPVEGSPKGELALKKAIFVAKRNHAHLDILTVIQSSRFLDVYGHMGSNMDYVEVSLRRAKEYVEDLKDQIKRKYDFEDVEVYVEAGDPKAIIATEMPEKLGTDLIMMGATGLNAFQRAMIGSVADYVTRVALMDVLLVRTELDNLPYSK | failed |
| MANLGMTGVADGNNSEQTYLGQINYQDQTITKASAKKLNREIDLQRASQLTLWAMPMVGMYQSYNSTIALFDLQEGDAPIIGLHEGYDGVYPFLTANVTTPYTISLVDLSETGPYVVNIPAGSIFGVANNAWQEPIKEIGSGNKETLLFVGPGQEYPKDFDGEVIQSDTNQILYFYRVLGVGAEAEKLKTAVTAYKLSDVANPPQVKFVIYKPKASDADVTIATQPRGMAYWEVVNQYIQNEPMADRDRFFYAWLKDLGIEKGKAFNPTPYQKEILLEGVNTGMAMAQSLAFNKTKKKFSSSLYGSDSGWEGVLAGMDPKIDLDTYSMINERTAYTYEAVTTSAGMIVENPGHGSAYIGSYYDADGNALMGGKNYTLHIEPNPPAANFWSITVYDIKNRLIIRNEIKRSDLSSRSESLVMNSDGSVDLYFGPEAPEGKEGNWIQSNDGESYFMYLRLYGPEQEYFDQTYPMNKIDKTKLEHHHHHH | failed |
| MNKALKALGVLTTFVMLIVLIGGALVTKTGSGQGCGRQWPLCHGRFFPELNPASIIEWSHRFASGISIILVLSLAFWSWRKITPIFRETTFLAIMSIIFLFLQALLGALAVVFGSNALIMALHFGISLISFASVLILTLLIFEADKSVRTLVKPLQIGKKMQFHMIGILIYSYIVVYTGAYVRHTESSLACPNVPLCSPLNNGLPTQFHEWVQMGHRAAALLLFVWIIVAAVHAITSYKDQKQIFWGWISCLIFITLQALSGIMIVYSELALGFALAHSFFIACLFGVLCYFLLLIARFRYESRQS | failed |
| MDRRDAMGLSGSGSYYIHRGLSGSGPPTFHGSPQQQQGLRHLPNQNSPFGSGSTGFGSPSLHGDPSLATAAGGAGALPHHIGVNMIAPPPPPSETPMKRKRGRPRKYGQDGSVSLALSSSSVSTITPNNSNKRGRGRPPGSGKKQRMASVGELMPSSSGMSFTPHVIAVSIGEDIASKVIAFSQQGPRAICVLSASGAVSTATLIQPSASPGAIKYEGRFEILALSTSYIVATDGSFRNRTGNLSVSLASPDGRVIGGAIGGPLIAASPVQVIVGSFIWAAPKIKSKKREEEASEVVQETDDHHVLDNNNNTISPVPQQQPNQNLIWSTGSRQMDMRHAHADIDLMRG | failed |
| MQKIVIVANGAPYGSESLFNSLRLAIALREQESNLDLRLFLMSDAVTAGLRGQKPGEGYNIQQMLEILTAQNVPVKLCKTCTDGRGISTLPLIDGVEIGTLVELAQWTLSADKVLTF | not failed |
| MGHHHHHHSHMAQPLACARGRSQRLVCDPKAASALPDLAPDVFVLRVRLEETGEMFRVANCRGDMTVRELKEELDLMVGIPFNLQRLQYLDEGVLMDDTTLKFHDVVPGGIISLCIWHHDGWTEL | failed |
| MDDSAGHSGEDNALMEKHFMAAVVVTFQSGSTIDVCLARLRAAKDVAEICVVDNGSHDETLNIVQCHALADPRVRFVANLDNPGFAAACNQGAADVSAPWLVFVNPDLMVEPEILAQLRAYAEVYVPALLGVEQVDEHGYPDPAVRRRDPDFAAMLRNPRRGTQLAIPADPTQSLQLVPALSGALMLMSRLLFERLGGWDVGYRLHAEDLDLCRRARQVGATVAVVNTLQVVHLRGVSSRSRPFFVEWHKHCGLWRYFCKFEAPQRGLPVRLGVWLAIWSHAFFQCLGVWLRRR | failed |
| MTRTTGTRTTGILADGAIRALFAGDKLKSEADLDVDQVQPASLDLRLGSKAYRVRASFMPGPGTRVIDKLNRFSLHEVDLSQGAVLETGCVYIVPLMESLALPADMSASANPKSSTGRLDIFTRVMTDNAQEFDKIPAGYTGPLYLEISPRTFPIVVRRGSRLSQIRFRIGHALLNESEVLKLHETETLVASENPNVTGGGIALSIDLKGFGENGLIGYRGKHHTAVVDVDKKAQHDVLDFWEPLFARGRAELILDPDEFYILVSREAVHVPPLYAAEMTPFDPLVGEFRVHYAGFFDPGFGHAQAGGTGSRAVLEVRSHEVPFILEHGQIVGRLVYEHMLEKPEGLYGTGLGSNYQAQGLKLSKHFRAE | not failed |
| MNFKESRAIYLQIADRICDDILLGQYEEEGRIPSVREYASIVEVNANTVMRSYEYLQSQEVIYNKRGIGFFVASGAKMLIHSLRKEQFLKEEVGSFFRQLYTLGISIKEIEKMYYEFIQRQNQ | not failed |
| MFSAKKLSPADKLKNISSMLEEIVEDTTVPRNIRAAADNAKNALHNEEQELIVRSATAIQYLDDISEDPNMPIHTRTQIWGIVSELETIK | not failed |
| MKRGNEENNHKTSSSSSTQRLSRRKISAGEKSGNVNIPLDLTVEILKKLPAKSLLRFQCVSKQWLSIISSRRDFIDSIVTRSLTQPPPRDIKLIFHHQVLYPGPHFFIFSSTYPQNTDKESLTTRASSYHYVRGLICCWSHCPTTVDIYNPTTRQYYTVPDTNRYQYIETCFFGYDPVENQYKVMVLPKYYMEESPCQVFTVGDPIEKPWRDIQGIGVHFLLKDAVCINGVIYYQATNEYGSTYFLVSFDVRSEKFNHVKAPKILTDHPCTLINYQGKLGLIMCCKKGLEIWVMEDAEKKQD | failed |
| MRIAGIEPESIVDGPGIRFTVFTQGCPLQCPGCHNPATWDPCGGQEVDVEEVIAAMNSSVLASGLTLSGGEASRQPRACARLARAAHEMGWDVWSWSGYTVEALMRQARRDAELADMLGQIDVLVDGPFQLVHRTLTLPWRGSSNQRVIDMPATLRGGRAVEWADRAGNLR | failed |
| MSPPRDLPTLGRNTIPIPEFEMTRRNSKPGVRLLSVLVALGMAAPALAQAVTEPVTQPAIYPTPVSITLDGATIALGRSVVLVVAPGADKATVALVRSILSSAGVTKMATATRLPATLDRPHIVLGTGDAAVVRDALARSKARQDTHKEGYTLASVALDGGSLITLAGHDDDGLFHAAQTLRQLVERPAIPTLTIHDYPAMPIRGTIEGFYGAPWSMSDRSKHIDFLARTKANTFIYSPKDDPYARDRWRAPYPKATLKALGQLAATAKRNHVDFVYAISPGPTVCFSDPADAKALLRKFDAFRALGVRSFYVALDDIEYTKWNCERDKTAFGESGAQAAGIAQSHLLNLVQADLVARHDATSELIMVPTEYYDAKESPYKEALRKHLDPKIVVQWTGTDVVPPAISIPDARAATKAFGRKTLLWDNYPVNDFETSAGRLLMAPYARREAGLSAELSGIVSNPMNQEVPSRVAVMGLTAFAWNDKDYDAQRTWHAAARDLAGGDARVTAALLIFFDTQHLAPTFGSQPWQEQAPRLKAVLDHVREAIALGDAAARTQAIAELARTADEMAAAPQIIRDSVADKGFAKQSRPWLEAMEVWGGALQKTAAGLDAANRGDTQAPALFAEAAAHAAVAAVVPSIPGATRFDGPVKIADGVLDRFIAQAPRLIAYRVPAVADSAAAK | failed |
| MSDSAEMQQPELLLKSMNKLNGYHPQLIIPKKTLFKCDLDDKQSRLQVSSMHMENSGFLTEDEKRTIEAQKMKKRRTAGLRVAFIDPESQQYVLELHKWTKSYAFVKGWNKVVDKNDKTFKVGDVFSLWVFRCGGVNPVHDGVNLSGGHADSVVDGLEQGSLCFVLVPAKVSVHDGNLPQDSGHDGHNDNLPQDSVEPSSFFDESYELNHLFFDQEDSQGYLPDEDEDFGFNDDGSIRDSGHYQ | failed |
| MLKSEDADYEKAMKDKVGTGPQEYLKQLSDSLVKNQSAASVEVVSGATHSSDAFINYANQLIQAAQKADTTTISINNLAKMEDGTYKLEEQNYAHGYRVVFSMDVKDGKITKSDYNYVDKDGKLKSDDADYEKNMKAKSGTGPKEYIPALNKSLVEKQDVAAVDTVSGATNSSNQFKIYAAQLQNAAQNGNTDTIKVYNLVEAELEHHHHHH | failed |
| MFDIGWSELLVIAVVLIVVVGPKDLPPMIRAFGKTMAGLRKMAGDFRTQFDEALKEADMDDVRQTISDVRNLNPTNSLRDAMNPLRQLGNEIKSDLQKATSPSDGLSSTAAPATSEPVAPLVNVPEPDMKLPDSPPAVAAAPAPVAAASVAAEKPKRARAKSIATVEAEAVAAKPKRVSRSKAVATPETTVATNASEPASPKPTVKTIAKKATVKKIAAEKSVAVADAKPAKAARTKAAKPKKDEA | failed |
| MVSVTFEPVGKKVEDEPDTILEIARRNGVLIRSDCGGKGVCGKCKVVVVDYRGSLSDITDHERKHLIEEEISKGYRLACQARVEEGRATIFIPPESRLERRKVAGLTIEKEVELNPAVRKVYAEIQPPSIEDQLPDYDRLTRALGDFSLDLETLSEMPKLLREAEWRVTATFWNGRLIDLEKGDVSDRCYGVAVDVGSSKIICHLVDLKSGETIATGYSDNPQVAYGEDIVSRITYASKSAENRKRLQTVVVETVNQIIAELCNESGVDLRHVYEVMIVGNSVMHHLFFGIEPRFIGVSPFTPAVRRGVSFPAEDVGLRINRKGYVSSLPLVAGFVGADAVANIAITGIHKAEEISMVIDIGTNTEIVIGNREKLGVCSAPSGPAFEGAHITFGMKAISGAIDSVRIERDEVIYTTIDNAKAKGLCGTGLIDLIAELYRNGIINRNGKFVKDHSRIIVDGVPKFVVAKAEETEFGKPITVSEKDINELLMAKGAIKSGWMILSERLGIEPDKIERIYLAGSFGRHINVENAKVIGLLPDIPSEKITFAGDTAVGGAKMALKSVRVRDEMEDVVSRLNYVELSVEKNFYSVFVRAIPI | not failed |
| MTCDQIPGRMRVKAERTPFRCPTPVKRKKAMSSAMPQPETTPILACTVSRDVQNFDLLIEDMEAAMGESWGDLGFAEALAFFGQPESESLEFIALAIDTEDEDNLVLMGEIITQAKSRGIKVILIAEDVTPASLHQLLRKGADEFVPYPLPERELQSAIDRMSKPEPEQAQTHHNTAHLNKGAAREGALIVVHGLAGGTGSTTMAVNLAWELANIGGEDAPSVCLMDLDLQHGSVSTYLDLPRREAVFEMLSETQSMDEEVFGQALLSFEDKLQVLTAPSDMVPLDILSPEDIQRVIEMARAHFDYVIVDMPKTLVQWSETILQAAHVYFAMIELDMRSAQNALRMKRALQSEDLPFNKLRFALNKAPKFTDLSGKSRVKRMGESLGISIDLQLPDGGKQVTQGADHGLPLATSAPKNPLRREIAKLAQSLHELGRSDAKAA | failed |
| MKDTDETAFLNSLFMDFTSENELELFLKSLDEVWSEDLYSRLSAAGLIRHVISKVWNKEQHRISMVFEYDSKEGYQKCQEIIDKEFGITLKEKLKKFVFKIHNNRGVVVSEFIRST | not failed |
